Experimental findings from PMC10876425 are described below.

For test [1], the target named is Light-harvesting 2 (LH2) complex from Rhodobacter sphaeroides (Rhodobacter sphaeroides). Nature of the test: FRET or BRET; fluorescence lifetime microscopy (TCSPC) of LH2 emission at 857 ± 3 nm after excitation at 485 nm; intact DOPC proteoliposomes (LH2 only, 2:1, 1:1, 0.5:1 LH2:RC-LH1); E = 1 - τDA/τD; values are averages for the whole system.
Test [2] has as its target Reaction-centre light-harvesting 1 (RC-LH1) complex from Rhodobacter sphaeroides, carotenoid-less (from the ΔcrtB strain) (Rhodobacter sphaeroides) (UniProt P0C0Y8). The description is as above.

Substance “Light-harvesting 2 (LH2) complex from Rhodobacter sphaeroides” came in with an LH2 fluorescence lifetime in LH2-only proteoliposomes in test [1] of 0.72 ns. In test [2], this substance came in with an LH2 fluorescence lifetime in proteoliposomes (0.5:1 LH2:RC-LH1) of 0.37 ns, an LH2 fluorescence lifetime in proteoliposomes (1:1 LH2:RC-LH1) of 0.35 ns, an LH2 fluorescence lifetime in proteoliposomes (2:1 LH2:RC-LH1) of 0.43 ns and an LH2→RC-LH1 energy transfer efficiency (0.5:1 LH2:RC-LH1) of 49%. In test [2], this substance gave an LH2→RC-LH1 energy transfer efficiency (1:1 LH2:RC-LH1) of 51% and an LH2→RC-LH1 energy transfer efficiency (2:1 LH2:RC-LH1) of 40%.
